According to the supplement of paper PMC9112550, “Optimization of the antimicrobial peptide Bac7 by deep mutational scanning” (BMC Biology, 2022):

System: Escherichia coli TOP10
Test: shrunken log2 fold change of peptide-encoding DNA abundance (4.5 h post-induction vs induction); higher = less antimicrobial activity (less host growth inhibition)
Settings: time post-induction: 4.5 h; library: site-saturation at positions 5, 18, 19, 20
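Further: peptides expressed intracellularly from a pBAD plasmid library in pooled LB shake-flask culture, induced with 0.3% L-arabinose, DNA abundance read by NGS, three biological replicates, DESeq2 with apeglm shrinkage.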

| Sequence | shrunken log2 fold change |
| --- | --- |
| RRIRCRPPRLPRPRPRPRWSPRP | 0.422 |
| RRIRSRPPRLPRPRPRPIKDPRP | -0.224 |
| RRIRGRPPRLPRPRPRPNDFPRP | -0.000929 |
| RRIRARPPRLPRPRPRPWVPPRP | -0.146 |
| RRIRNRPPRLPRPRPRPVVFPRP | -0.0743 |
| RRIRPRPPRLPRPRPRPVMCPRP | 0.218 |
| RRIRVRPPRLPRPRPRPHILPRP | -0.234 |
| RRIRGRPPRLPRPRPRPFVQPRP | 0.0324 |
| RRIRPRPPRLPRPRPRPKEEPRP | 0.0604 |
| RRIRPRPPRLPRPRPRPFMAPRP | -0.305 |
| RRIRVRPPRLPRPRPRPREVPRP | 0.089 |
| RRIRIRPPRLPRPRPRPMSRPRP | -0.24 |
| RRIRCRPPRLPRPRPRPYWPPRP | -0.158 |
| RRIRDRPPRLPRPRPRPKMDPRP | 0.0675 |
| RRIRGRPPRLPRPRPRPLMKPRP | 0.635 |
| RRIRWRPPRLPRPRPRPQSYPRP | -0.0988 |
| RRIRTRPPRLPRPRPRPKYLPRP | -0.0222 |
| RRIRRRPPRLPRPRPRPMPVPRP | 0.388 |
| RRIRFRPPRLPRPRPRPHWGPRP | -0.0695 |
| RRIRCRPPRLPRPRPRPSPYPRP | -0.302 |
| RRIRNRPPRLPRPRPRPNITPRP | -0.693 |
| RRIRRRPPRLPRPRPRPFVCPRP | 0.191 |
| RRIRNRPPRLPRPRPRPRQTPRP | 0.112 |
| RRIRGRPPRLPRPRPRPHDSPRP | -0.0179 |
| RRIRLRPPRLPRPRPRPPLMPRP | 0.313 |
| RRIRHRPPRLPRPRPRPQADPRP | -0.139 |
| RRIRKRPPRLPRPRPRPRIKPRP | 0.185 |

| Sequence | shrunken log2 fold change |
| --- | --- |
| RRIRHRPPRLPRPRPRPHVHPRP | -0.201 |
| RRIRMRPPRLPRPRPRPDHYPRP | -0.0146 |
| RRIRMRPPRLPRPRPRPDYTPRP | -0.0182 |
| RRIRERPPRLPRPRPRPSPLPRP | -0.0982 |
| RRIRFRPPRLPRPRPRPNYDPRP | -0.866 |
| RRIRPRPPRLPRPRPRPMWCPRP | -0.0757 |
| RRIRHRPPRLPRPRPRPCGCPRP | -0.0378 |
| RRIRPRPPRLPRPRPRPERDPRP | 0.195 |
| RRIRMRPPRLPRPRPRPPYHPRP | -0.0913 |
| RRIRVRPPRLPRPRPRPLDLPRP | -0.0307 |
| RRIRPRPPRLPRPRPRPIYNPRP | -0.837 |
| RRIRMRPPRLPRPRPRPKNTPRP | 0.575 |
| RRIRERPPRLPRPRPRPNDYPRP | -0.41 |
| RRIRARPPRLPRPRPRPDDCPRP | 0.167 |
| RRIRVRPPRLPRPRPRPMPPPRP | 0.44 |
| RRIRERPPRLPRPRPRPHDGPRP | -0.532 |
| RRIRGRPPRLPRPRPRPLDMPRP | 0.441 |
| RRIRDRPPRLPRPRPRPDNTPRP | -0.103 |
| RRIRQRPPRLPRPRPRPQNYPRP | 0.0103 |
| RRIRPRPPRLPRPRPRPQFSPRP | -0.184 |
| RRIRDRPPRLPRPRPRPLTFPRP | -0.212 |
| RRIRVRPPRLPRPRPRPIQYPRP | 0.0111 |
| RRIRVRPPRLPRPRPRPIMPPRP | -0.535 |
| RRIRGRPPRLPRPRPRPSDLPRP | 0.0731 |
| RRIRSRPPRLPRPRPRPHGVPRP | 0.013 |
| RRIRTRPPRLPRPRPRPGTQPRP | -0.036 |
| RRIRVRPPRLPRPRPRPQHWPRP | 0.171 |
